Blank lines part the entries; values can stand above or below the binder they belong to.
Assays:
[1] = biological target: T1, human CD8A-Fc (recombinant human CD8 alpha fused to Fc fragment of human IgG1) (human, UniProt P01732 22-182, limits assumed); assay: SPR, dissociation rate on recombinant CD8 alpha
T1 construct: SPR ligand, captured by goat anti-human Fc; also called hCD8A-Fc; recombinant CD8 alpha; not shown: linker with flag (and polyhistidine) tag and Fc fragment of human IgG1; depends on which of the two constructs was used
T1 sequence (P01732 22-182 limits assumed): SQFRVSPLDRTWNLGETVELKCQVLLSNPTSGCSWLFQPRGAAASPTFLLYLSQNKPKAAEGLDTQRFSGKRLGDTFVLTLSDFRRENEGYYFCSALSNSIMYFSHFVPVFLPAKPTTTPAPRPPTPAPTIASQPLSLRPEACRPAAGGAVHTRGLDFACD

[2] = biological target: T1, human CD8A-Fc (recombinant human CD8 …); assay: SPR (ProteOn), captured hCD8A-Fc, heterogeneous ligand fit, lower affinity population
Description: (§1) Human CD8A-Fc was then captured at five surface densities ranging from 200 to 1200 response units, leaving the 6th channel as empty channel control for GAH-Fc IgG surface. Binding was measured by flowing five different concentrations of anti-CD8A FN3 domains (1 μM diluted in a 3-fold dilution series) as analytes simultaneously in the horizontal orientation over the captured hCD8A-Fc surfaces, with a sixth analyte channel containing only running buffer PBST. All interactions were measured at 100 uL/min flow rate with association and dissociation times being 4, 30 minutes respectively. […] Data analyses were performed using Bio-Rad ProteOn Manager software (version 3.1.0.6). Raw data were double referenced by subtraction of the interspot (empty chip surface, no protein immobilized or captured) signals to correct the non-specific binding of the FN3 domain to the pre-coated GAH-Fc IgG surface, followed by a double referencing using the buffer blank response (to correct for any baseline drift resulting from ligand dissociation over time). […] Given that the GAH-Fc capture of hCD8A-Fc format is the least disruptive relative to other formats in introducing potential experimental artifacts (such as ligand activity loss and/or artificial eptiopes/heterogeneous ligand population due to amine coupling), it is considered that the results from the GAH-Fc capture experiments reported here represent the most reliable ProteOn SPR data, despite the non-conforming 1:1 Langmuir fits observed in many instances. A heterogeneous ligand model was chosen to fit the data assuming two different ligand species, either due to the heterogeneity in the ligand protein population or due to potential different mechanisms for each FN3 domain binding to the 2 hCD8A monomers in the Fc fusion protein.

[3] = biological target: T1, human CD8A-Fc (recombinant human CD8 …); assay: SPR (ProteOn), captured hCD8A-Fc, heterogeneous ligand fit, higher affinity population
Description: as §1

[4] = biological target: T1, human CD8A-Fc (recombinant human CD8 …); assay: SPR on recombinant human CD8 alpha after DFO conjugation, lower affinity population
Description: (§2) Data analyses were performed using Bio-Rad ProteOn Manager software (version 3.1.0.6). Raw data were double referenced by subtraction of the interspot (empty chip surface, no protein immobilized or captured) signals to correct the non-specific binding of the FN3 domain to the pre-coated GAH-Fc IgG surface, followed by a double referencing using the buffer blank response (to correct for any baseline drift resulting from ligand dissociation over time). […] Given that the GAH-Fc capture of hCD8A-Fc format is the least disruptive relative to other formats in introducing potential experimental artifacts (such as ligand activity loss and/or artificial eptiopes/heterogeneous ligand population due to amine coupling), it is considered that the results from the GAH-Fc capture experiments reported here represent the most reliable ProteOn SPR data, despite the non-conforming 1:1 Langmuir fits observed in many instances. A heterogeneous ligand model was chosen to fit the data assuming two different ligand species, either due to the heterogeneity in the ligand protein population or due to potential different mechanisms for each FN3 domain binding to the 2 hCD8A monomers in the Fc fusion protein. In this case, because each anti-CD8A FN3 domain would have separate affinities, the resultant sensorgram reflects the sum of two independent reactions with two sets of rate constants, which were reported for each FN3 domain binding.
(§3) Following conjugation to DFO, the binding of each anti-CD8A FN3 domain to recombinant human CD8 alpha was assessed by surface plasmon resonance as previously described. All samples retained tight binding to human CD8A following mutation of E54 to Cys and conjugation to DFO (Table 8).

[5] = biological target: T1, human CD8A-Fc (recombinant human CD8 …); assay: SPR on recombinant human CD8 alpha after DFO conjugation, higher affinity population
Description: as §2, §3

B1: P282DR9P1359_C5 (designed binder)
chain: LPAPKNLVVSRVTEDSARLSWTAPDAAFDSFWITYPEWPDPGGEAIVLTVPGSERSYDLTGLKPGTEYFVVIYGVKGGEIYSPLSAIFTT
notes: FN3 domain (Centyrin); purified as His-tagged protein, tag not in the entry
- koff [1]: 0.000147 s⁻¹
- Kd [2]: 6.5 nM
- koff [2]: 0.000127 s⁻¹
- kon [2]: 19200 M⁻¹ s⁻¹
- Kd [3]: 0.02 nM
- koff [3]: 5.79e-06 s⁻¹
- kon [3]: 300000 M⁻¹ s⁻¹

B2: CD8S366-DFO (designed binder)
chain: LPAPKNLVVSRVTEDSARLSWTAPDAAFDSFWITYPEWPDPGGEAIVLTVPGSCRSYDLTGLKPGTEYFVVIYGVKGGEIYSPLSAIFTT
modifications: deferoxamine (DFO) conjugated to the free cysteine introduced by E54C
notes: DFO conjugate of CD8S366
- Kd [4]: 18.2 nM
- koff [4]: 0.000106 s⁻¹
- kon [4]: 5850 M⁻¹ s⁻¹
- Kd [5]: 0.9 nM
- koff [5]: 7.01e-05 s⁻¹
- kon [5]: 79500 M⁻¹ s⁻¹

B3: P282DR9P1359_G7 (designed binder)
chain: LPAPKNLVVSRVTEDSARLSWTAPDAAFDSFAITYIEKEHIEDGEAIVLTVPGSERSYDLTGLKPGTEYWVPIWGVKGGANSWPLSAIFTT
notes: as for B1
- koff [1]: 1.06e-05 s⁻¹
- Kd [2]: 2.1 nM
- koff [2]: 5.51e-05 s⁻¹
- kon [2]: 68400 M⁻¹ s⁻¹
- Kd [3]: 0.05 nM
- koff [3]: 1.49e-05 s⁻¹
- kon [3]: 276000 M⁻¹ s⁻¹

B11: CD8S370-DFO (designed binder)
chain: LPAPKNLVVSRVTEDSARLSWTAPDAAFDSFAITYIEKEHIEDGEAIVLTVPGSCRSYDLTGLKPGTEYWVPIWGVKGGANSWPLSAIFTT
modifications: deferoxamine (DFO) conjugated to the free cysteine introduced by E54C
notes: DFO conjugate of CD8S370
- Kd [4]: 13 nM
- koff [4]: 7.65e-05 s⁻¹
- kon [4]: 5910 M⁻¹ s⁻¹
- Kd [5]: ≤ 0.3 nM
- koff [5]: ≤ 2e-05 s⁻¹
- kon [5]: 46400 M⁻¹ s⁻¹

B12: CD8S378 (designed binder)
chain: LPAPKNLVVSRVTEDSARLSWTAPDAAFDSFAITYIEKEHIEEGEAIVLTVPGSERSYDLTGLKPGTEYWVPIWGVKGGANSWPLSAIFTT
notes: D43E mutant of P282DR9P1359_G7; the entry holds the mutation
- koff [1]: 5.8e-05 s⁻¹

B13: P283AR9P1362_D6 (designed binder)
chain: LPAPKNLVVSRVTEDSARLSWAKRPGAFDSFLIQYQESEKVGEAIVLTVPGSERSYDLTGLKPGTEYTVSIYGVDVKYDIDSRPISSNPLSAIFTT
notes: as for B1
- Kd [2]: 0.98 nM
- koff [2]: 3.12e-05 s⁻¹
- kon [2]: 56200 M⁻¹ s⁻¹
- Kd [3]: 0.03 nM
- koff [3]: 1e-06 s⁻¹
- kon [3]: 155000 M⁻¹ s⁻¹

B14: CD8S369-DFO (designed binder)
chain: LPAPKNLVVSRVTEDSARLSWAKRPGAFDSFLIQYQESEKVGEAIVLTVPGSCRSYDLTGLKPGTEYTVSIYGVDVKYDIDSRPISSNPLSAIFTT
modifications: deferoxamine (DFO) conjugated to the free cysteine introduced by E54C
notes: DFO conjugate of CD8S369
- Kd [4]: ≤ 3.4 nM
- koff [4]: ≤ 1e-05 s⁻¹
- kon [4]: 2870 M⁻¹ s⁻¹
- Kd [5]: ≤ 0.3 nM
- koff [5]: ≤ 1e-05 s⁻¹
- kon [5]: 37300 M⁻¹ s⁻¹

B15: CD8S367-DFO (designed binder)
chain: LPAPKNLVVSRVTEDSARLSWTAPDAAFDSFAIAYPEWPPQGEAIVLTVPGSCRSYDLTGLKPGTEYFVVIYGVKGGSYSAPLSAIFTT
modifications: deferoxamine (DFO) conjugated to the free cysteine introduced by E54C
notes: DFO conjugate of CD8S367
- Kd [4]: 89.1 nM
- koff [4]: 0.000975 s⁻¹
- kon [4]: 10900 M⁻¹ s⁻¹
- Kd [5]: 1.55 nM
- koff [5]: 0.000131 s⁻¹
- kon [5]: 84500 M⁻¹ s⁻¹

B16: P282DR9P1359_F7 (designed binder)
chain: LPAPKNLVVSRVTEDSARLSWTAPDAAFDSFAIAYPEWPPQGEAIVLTVPGSERSYDLTGLKPGTEYFVVIYGVKGGSYSAPLSAIFTT
notes: as for B1
- koff [1]: 0.000339 s⁻¹
- Kd [2]: 12 nM
- koff [2]: 0.000365 s⁻¹
- kon [2]: 40300 M⁻¹ s⁻¹
- Kd [3]: 0.5 nM
- koff [3]: 7.99e-05 s⁻¹
- kon [3]: 404000 M⁻¹ s⁻¹

B17: CD8S368-DFO (designed binder)
chain: LPAPKNLVVSRVTEDSARLSWTAPDAAFDSFQIAYPEWPPPGEAIVLTVPGSCRSYDLTGLKPGTEYFVIIQGVKGGVESWPLSAIFTT
modifications: deferoxamine (DFO) conjugated to the free cysteine introduced by E54C
notes: DFO conjugate of CD8S368
- Kd [4]: 13.6 nM
- koff [4]: 9.98e-05 s⁻¹
- kon [4]: 7320 M⁻¹ s⁻¹
- Kd [5]: 0.23 nM
- koff [5]: 2.53e-05 s⁻¹
- kon [5]: 108000 M⁻¹ s⁻¹

B18: P282ER9P1360_C8 (designed binder)
chain: LPAPKNLVVSRVTEDSARLSWTAPDAAFDSFGILYYEPVDSGEAITLPVPGSERSYDLTGLKPGTEYWVVITGVKGGAPSTPLGTIFTT
notes: as for B1
- koff [1]: 0.000179 s⁻¹
- Kd [2]: 4.1 nM
- koff [2]: 9.52e-05 s⁻¹
- kon [2]: 30900 M⁻¹ s⁻¹
- Kd [3]: 0.2 nM
- koff [3]: 4.71e-05 s⁻¹
- kon [3]: 218000 M⁻¹ s⁻¹

B19: CD8S365-DFO (designed binder)
chain: LPAPKNLVVSRVTEDSARLSWTAPDAAFDSFGILYYEPVDSGEAITLPVPGSCRSYDLTGLKPGTEYWVVITGVKGGAPSTPLGTIFTT
modifications: deferoxamine (DFO) conjugated to the free cysteine introduced by E54C
notes: DFO conjugate of CD8S365
- Kd [4]: 9.73 nM
- koff [4]: 4.29e-05 s⁻¹
- kon [4]: 4410 M⁻¹ s⁻¹
- Kd [5]: 0.6 nM
- koff [5]: 4.18e-05 s⁻¹
- kon [5]: 68000 M⁻¹ s⁻¹

Further lines, results first:

- koff [1]: 4.97e-05 s⁻¹
B4: CD8S379 (designed binder)
chain: LPAPKNLVVSRVTEDSARLSWTAPDAAFDSFAITYIEKEHIESGEAIVLTVPGSERSYDLTGLKPGTEYWVPIWGVKGGANSWPLSAIFTT
notes: D43S mutant of P282DR9P1359_G7; the entry holds the mutation

- koff [1]: 0.000125 s⁻¹
B5: CD8S387 (designed binder)
chain: LPAPKNLVVSRVTEDSARLSWTAPDAAFDSFAITYIEKEHIEDGEAIVLTVPGSERSYDLTGLKPGTEYWVPIWGVKGGANSEPLSAIFTT
notes: W83E mutant of P282DR9P1359_G7; the entry holds the mutation

- koff [1]: 0.0002 s⁻¹
B6: CD8S381 (designed binder)
chain: LPAPKNLVVSRVTEDSARLSWTAPDAAFDSFAITYIEKEHIEDGEAIVLTVPGSERSYDLTGLKPGTEYFVPIWGVKGGANSWPLSAIFTT
notes: W70F mutant of P282DR9P1359_G7; the entry holds the mutation

- koff [1]: 0.00121 s⁻¹
B7: CD8S380 (designed binder)
chain: LPAPKNLVVSRVTEDSARLSWTAPDAAFDSFAITYIEKEHIEDGEAIVLTVPGSERSYDLTGLKPGTEYYVPIWGVKGGANSWPLSAIFTT
notes: W70Y mutant of P282DR9P1359_G7; the entry holds the mutation

- koff [1]: 0.247 s⁻¹
B8: CD8S382 (designed binder)
chain: LPAPKNLVVSRVTEDSARLSWTAPDAAFDSFAITYIEKEHIEDGEAIVLTVPGSERSYDLTGLKPGTEYSVPIWGVKGGANSWPLSAIFTT
notes: W70S mutant of P282DR9P1359_G7; the entry holds the mutation

- koff [1]: 7.54e-05 s⁻¹
B9: CD8S388 (designed binder)
chain: LPAPKNLVVSRVTEDSARLSWTAPDAAFDSFAITYIEKEHIEDGEAIVLTVPGSERSYDLTGLKPGTEYWVPIWGVKGGAQSWPLSAIFTT
notes: N81Q mutant of P282DR9P1359_G7; the entry holds the mutation

- koff [1]: 0.000747 s⁻¹
B10: CD8S383 (designed binder)
chain: LPAPKNLVVSRVTEDSARLSWTAPDAAFDSFAITYIEKEHIEDGEAIVLTVPGSERSYDLTGLKPGTEYWVPIYGVKGGANSWPLSAIFTT
notes: W74Y mutant of P282DR9P1359_G7; the entry holds the mutation

- koff [1]: 0.000152 s⁻¹
B20: CD8S390 (designed binder)
chain: LPAPKNLVVSRVTEDSARLSWTAPDAAFDSFGILYYEPVDSGEAITLPVPGSERSYDLTGLKPGTEYYVVITGVKGGAPSTPLGTIFTT
notes: W68Y mutant of P282ER9P1360_C8; the entry holds the mutation

- koff [1]: 0.000184 s⁻¹
B21: CD8S389 (designed binder)
chain: LPAPKNLVVSRVTEDSARLSWTAPDAAFDSFGILYYEPVDSGEAITLPVPGSERSYDLTGLKPGTEYFVVITGVKGGAPSTPLGTIFTT
notes: W68F mutant of P282ER9P1360_C8; the entry holds the mutation

- koff [1]: 0.00114 s⁻¹
B22: CD8S405 (designed binder)
chain: LPAPKNLVVSRVTEDSARLSWTAPDAAFDSFGILYYEPVDSGEAITLTVPGSERSYDLTGLKPGTEYWVVITGVKGGAPSTPLGTIFTT
notes: P48T mutant of P282ER9P1360_C8; the entry holds the mutation

- koff [1]: 0.00032 s⁻¹
B23: CD8S391 (designed binder)
chain: LPAPKNLVVSRVTEDSARLSWTAPDAAFDSFGILYYEPVDSGEAITLPVPGSERSYDLTGLKPGTEYHVVITGVKGGAPSTPLGTIFTT
notes: W68H mutant of P282ER9P1360_C8; the entry holds the mutation

— patent US20210032312A1 (Janssen / Centocor, published 2021)
